Measurements as given in patent publication US20260007747A1 (VIVASOR, published 2026).

B1: PD-L1 CAR-ζFL (other)
chain: EVQLVESGAEVKKPGSSVKVSCKASGGTFSSYAISWVRQAPGQGLEWMGGIIPIFGTANYAQKFQGRVTITADESTSTAYMELSSLRSEDTAVYYCARAPYYYYYMDVWGQGTTVTVSSGGGGSGGGGSGGGGSQSALTQPASVSGSLGQSVTISCTGSSSDVGSYNLVSWYQQHPGKAPNLMIYDVSKRSGVSNRFSGSKSGNTASLTISGLQAEDEADYYCSSYTGISTVVFGGGTKLTVLAKPTTTPAPRPPTPAPTIASQPLSLRPEACRPAAGGAVHTRGLDFAPRKIEVMYPPPYLDNEKSNGTIIHVKGKHLCPSPLFPGPSKPFWVLVVVGGVLACYSLLVTVAFIIFWVKRGRKKLLYIFKQPFMRPVQTTQEEDGCSCRFPEEEEGGCELRVKFSRSADAPAYQQGQNQLYNELNLGRREEYDVLDKRRGRDPEMGGKPRRKNPQEGLYNELQKDKMAEAYSEIGMKGERRRGKGHDGLYQGLSTATKDTYDALHMQALPPR
B2: αPDL1-δ-TCRγδ receptor encoded by construct GD102 (other)
chain 1: EVQLVESGAEVKKPGSSVKVSCKASGGTFSSYAISWVRQAPGQGLEWMGGIIPIFGTANYAQKFQGRVTITADESTSTAYMELSSLRSEDTAVYYCARAPYYYYYMDVWGQGTTVTVSSGGGGSGGGGSGGGGSQSALTQPASVSGSLGQSVTISCTGSSSDVGSYNLVSWYQQHPGKAPNLMIYDVSKRSGVSNRFSGSKSGNTASLTISGLQAEDEADYYCSSYTGISTVVFGGGTKLTVLEVKTDSTDHVKPKETENTKQPSKSCHKPKAIVHTEKVNMMSLTVLGLRMLFAKTVAVNFLLTAKLFFL
chain 2: PIKTDVITMDPKDNCSKDANDTLLLQLTNTSAYYMYLLLLLKSVVYFAIITCCLLRRTAFCCNGEKS
B3: αPDL1-γ-TCRγδ receptor encoded by construct GD109 (other)
chain 1: EVQLVESGAEVKKPGSSVKVSCKASGGTFSSYAISWVRQAPGQGLEWMGGIIPIFGTANYAQKFQGRVTITADESTSTAYMELSSLRSEDTAVYYCARAPYYYYYMDVWGQGTTVTVSSGGGGSGGGGSGGGGSQSALTQPASVSGSLGQSVTISCTGSSSDVGSYNLVSWYQQHPGKAPNLMIYDVSKRSGVSNRFSGSKSGNTASLTISGLQAEDEADYYCSSYTGISTVVFGGGTKLTVLPIKTDVITMDPKDNCSKDANDTLLLQLTNTSAYYMYLLLLLKSVVYFAIITCCLLRRTAFCCNGEKS
chain 2: EVKTDSTDHVKPKETENTKQPSKSCHKPKAIVHTEKVNMMSLTVLGLRMLFAKTVAVNFLLTAKLFFL

Target: PD-L1 expressed on tumor cells (A549 wild type, MDA-MB-231, SK-MEL-5) (human, UniProt Q9NZQ7 19-290)
Assay: cell-based or functional assay

Sequence of PD-L1 expressed on tumor cells (A549 wild type, MDA-MB-231, SK-MEL-5) (Q9NZQ7 19-290): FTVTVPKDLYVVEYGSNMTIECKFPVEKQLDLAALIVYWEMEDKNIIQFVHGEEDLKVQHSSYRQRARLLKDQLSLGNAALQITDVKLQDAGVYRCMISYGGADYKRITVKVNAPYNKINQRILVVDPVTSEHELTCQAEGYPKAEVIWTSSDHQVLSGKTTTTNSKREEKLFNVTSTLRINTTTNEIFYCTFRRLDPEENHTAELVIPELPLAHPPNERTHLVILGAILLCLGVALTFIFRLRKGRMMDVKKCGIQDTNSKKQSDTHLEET

Expansion of T cells on irradiated tumor cells, E:T 1:4, > 100 fold:
B1
B2
B3
